Results taken from article doi:10.1101/2021.03.23.436655.

Biological target: fluorescent tagged eIF4E-3 (Drosophila melanogaster)
Assay: FRET or BRET

FRET efficiency: 25%
B1: fluorescent tagged Me31B (FRET partner of eIF4E-3) (natural protein)
chain: MMTEKLNSGHTNLTSKGIINDLQIAGNTSDDMGWKSKLKLPPKDNRFKTTDVTDTRGNEFEEFCLKRELLMGIFEKGWERPSPIQEAAIPIALSGKDVLARAKNGTGKTGAYCIPVLEQIDPTKDYIQALVMVPTRELALQTSQICIELAKHLDIRVMVTTGGTILKDDILRIYQKVQLIIATPGRILDLMDKKVADMSHCRILVLDEADKLLSLDFQGMLDHVILKLPKDPQILLFSATFPLTVKNFMEKHLREPYEINLMEELTLKGVTQYYAFVQERQKVHCLNTLFSKLQINQSIIFCNSTQRVELLAKKITELGYCCYYIHAKMAQAHRNRVFHDFRQGLCRNLVCSDLFTRGIDVQAVNVVINFDFPRMAETYLHRIGRSGRFGHLGIAINLITYEDRFDLHRIEKELGTEIKPIPKVIDPALYVANVGASVGDTCNNSDLNNSANEEGNVSK
